System: F1*sub RNA substrate (template-directed ligation)
Experiment: fraction ligated after 30 min (ligated reads / total reads); higher = more ligase activity; sequences stand for … in GAGACCGCAACTGAAAAGTTGT…AGTTCTGCACGTAGAAGCAAAAGGC
Conditions: 42 °C
Experimental: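 Chip-synthesised pool of F1* ligase ribozyme variants (all single and double substitutions, single, double and triple deletions in the catalytic core and GAA bulge, plus designed variants) was transcribed with T7 and reacted as a pool with excess substrate F1*sub for 30 min at 42 C in 50 mM EPPS pH 8.5, 25 mM MgCl2. Ligated and unligated bands were separated by PAGE, barcoded by RT and deep sequenced; fraction ligated = ligated reads / total reads per variant, relative activity = FL / FL of wild type (0.826). Sequences are the DNA template of the ribozyme.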

| Sequence | fraction ligated |
| --- | --- |
| TATCACTTGTGTGACACTTTGGATGGGTTGA [3d1731] | 0.826 |
| TATCACTTGCGTAAGACACTTTGGATGGGTTG [2d178] | 0.825 |
| ATCACTTGTGTAAGACACTTTGGATGGTTGA [3d168] | 0.45 |
| TATCACTTGTCGTAAACATTTGGATGGGTTA [3d2079] | 0.822 |
| TTCACTTGTCGTAAGCACTTGGATGGGTTGA [3d455] | 0.231 |
| ATCACTTGTCGTAAGAACTTTGGATGGGTTA [3d237] | 0.351 |
| TTCACTTGTCGTAAGACACTTTATGGGTTGA [3d491] | 0.00731 |
| TATCATTGTCGTAGACACTTTGATGGGTTGA [3d1221] | 0.774 |
| TATCACTTGTCGAAGACACTTTGATGGGTTG [3d1969] | 0.732 |
| TACATTGTCGTAAGACCTTTGGATGGGTTGA [3d557] | 0.214 |
| ATCACTGTCGTAAGACACTTTGATGGGTTGA [3d118] | 0.685 |
| TATCATTGTGAAGACACTTTGGATGGGTTGA [3d1173] | 0.824 |
| TATCACTTGTGAAGACCTTTGGATGGGTTGA [3d1722] | 0.823 |
| TATCACTTGTGTAAGACACTTGGATGGGTTA [3d1791] | 0.349 |
| ATCACTTTCGTAAGACACTTTGGTGGGTTGA [3d135] | 0.00882 |
| TATCACTTTCGTAAGACCTTTGGATGGGTTA [3d1552] | 0.623 |
| TATCACTTGTCGTAAGACCTTTGAGGGTTGA [3d2192] | 0.0254 |
| ATCACTTGTCGTAGACACTTTGGTGGGTTGA [3d206] | 0.0928 |
| TATCCTTGTCTAAGACACTTTGGTGGGTTGA [3d1024] | 0.19 |
| TATCATTGTCGTAAGACATTTGGATGGGTTA [3d1267] | 0.659 |
| TATCACTTGTCGTAGACACTTTGGGGGTTGA [3d2048] | 0.0891 |
| TCACTTGTCGAAGACACTTTGGATGGGTTGA [3d10] | 0.748 |

| Sequence | fraction ligated |
| --- | --- |
| TATCACTTGTCTAAACACTTTGGTGGGTTGA [3d1841] | 0.116 |
| TACACTTTCGTAAGACACTTTGGATGGGTTG [3d600] | 0.0259 |
| TATCACTTGTCGTAAACACTTTGATGGTTGA [3d2091] | 0.0645 |
| TATCCTTGTCGTAGACACTTTGGAGGGTTGA [3d1051] | 0.00532 |
| TATCACTTGCGTAAGACACTTTGATGGTTGA [3d1691] | 0.1 |
| TATCATTTCGTAAGACACTTTGGAGGGTTGA [3d1152] | 0.042 |
| TATCATTGTGTAAGACACTTTGGATGGGTTA [3d1185] | 0.677 |
| ATCACTTGTCGTAAGACACTTTGGGGGTTGA [3d266] | 0.0143 |
| TATCACTTGCGTAAGCACTTTGGATGGGTTA [3d1657] | 0.812 |
| CACTTGTCGTAAGACACTTTGGATGGGTTGA [3d1] | 0.637 |
| TATCATTTCGTAGACACTTTGGATGGGTTGA [3d1143] | 0.802 |
| TATCACTTGTCTAGACACTTTGATGGGTTGA [3d1830] | 0.739 |
| TATACTTGTGTAAGACACTTTGGTGGGTTGA [3d838] | 0.0565 |
| TATCACTTGTCTAGACACTTTGGATGGGTTG [3d1835] | 0.76 |
| TATCCTTGTCTAAGACCTTTGGATGGGTTGA [3d1020] | 0.786 |
| TATCACTTGTCGTAGACACTTGGATGGGTTGA [2d227] | 0.803 |
| TATCACTTGTGTAAGCACTTTGGAGGGTTGA [3d1760] | 0.121 |
| TATCCTTGCGTAGACACTTTGGATGGGTTGA [3d987] | 0.799 |
| ATCACTGTCGAAGACACTTTGGATGGGTTGA [3d110] | 0.775 |
| TATCCTTGTCGTAAGACACTTGGAGGGTTGA [3d1100] | 0.00692 |
| TATCACTTGTCGTAAGCACTTTGGTGGGTTGA [2d249] | 0.14 |
| TATCACTTGTCGTAAACACTTGGATGGGTTA [3d2086] | 0.492 |

| Sequence | fraction ligated |
| --- | --- |
| TATCACTTGTCGTAAGACACTTGGTGGGTTA [3d2246] | 0.0114 |
| TATCACTGTCGTAAACACTTTGGTGGGTTGA [3d1403] | 0.086 |
| ATCACTTGCGTAAGACACTTTGGATGGGTTA [3d154] | 0.567 |
| TATCACTTGTGTAAGACCTTTGGATGGGTTG [3d1778] | 0.812 |
| TACACTTGTCGTAAGACACTTTGGATGGTTG [3d735] | 0.507 |
| TACACTTTCGTAAGACACTTTGGTGGGTTGA [3d596] | 0.0156 |
| TATCACTGTGTAAGAACTTTGGATGGGTTGA [3d1348] | 0.882 |
| TATCCTTGTCTAGACACTTTGGATGGGTTGA [3d1016] | 0.763 |
| ATCACTTGCGTAAGACACTTTGGATGGGTTGA [2d8] | 0.836 |
| TACACTTGTCGTAAACACTTTGATGGGTTGA [3d676] | 0.0132 |
| TATCACTTGTCGAAGACCTTTGGATGGGTTG [3d1949] | 0.79 |
| TACATTGTCGTAGACACTTTGGATGGGTTGA [3d553] | 0.0879 |
| ATCACTTGTCGTAAGACCTTTGATGGGTTGA [3d240] | 0.311 |
| TACCTTGTCGTAAGACACTTTGATGGGTTGA [3d541] | 0.304 |
| ATCACTTGTCGTAAGACACTTTGGTGGGTTGA [2d20] | 0.0391 |
| TATCACTTGTCGTGACACTTTGATGGGTTGA [3d1987] | 0.508 |
| TTCACTTGTGTAAGACACTTTGGATGGTTGA [3d399] | 0.284 |
| TATCACTTGTCGTAAGACCTTTGGATGGGTTA [2d267] | 0.788 |
| TATCACTTGTCGTAGACACTTTGTGGGTTGA [3d2043] | 0.0334 |
| TACACTTGTCGTAAGCACTTTGGATGGGTTG [3d691] | 0.151 |
| TACACTTGTCTAAGACACTTTGGTGGGTTGA [3d641] | 0.124 |
| TCACTTGCGTAAGACACTTTGGATGGGTTGA [3d7] | 0.493 |

| Sequence | fraction ligated |
| --- | --- |
| TATCATTTCGTAAGACATTTGGATGGGTTGA [3d1148] | 0.801 |
| TACACTTGTCGTAAGCACTTTGATGGGTTGA [3d686] | 0.0278 |
| TATCACTTGTCGTAAACACTTTGGAGGGTTG [3d2100] | 0.0384 |
| TTCACTTTCGTAAGACACTTTGGATGGGTTG [3d370] | 0.184 |
| TATCACTTGTCGTAAGACCTTGGATGGGTTA [3d2188] | 0.771 |
| TATCCTTGTCGTAAGACACTTTATGGGTTGA [3d1104] | 0.0278 |
| TATCACTTGTGTAGACACTTTGGTGGGTTGA [3d1739] | 0.105 |
| TATCACTTGTCGAAGACACTTTGATGGGTTA [3d1968] | 0.15 |
| TATCACTTGTCGTAAACATTTGATGGGTTGA [3d2075] | 0.384 |
| ATCATTGTCGTAAGACACTTTGGTGGGTTGA [3d100] | 0.109 |
| TATACTTGTCGTAGACACTTTGGATGGGTTA [3d881] | 0.00736 |
| TATCACTTGTGTAAACACTTTGGATGGGTTA [3d1752] | 0.805 |
| TATACTTGTCTAAGACACTTTGATGGGTTGA [3d851] | 0.719 |
| TATATTTCGTAAGACACTTTGGATGGGTTGA [3d759] | 0.245 |
| TACCTGTCGTAAGACACTTTGGATGGGTTGA [3d528] | 0.655 |
| TATCACTGTCGTAGACACTTTGGAGGGTTGA [3d1394] | 0.13 |
| TACACTGTGTAAGACACTTTGGATGGGTTGA [3d569] | 0.632 |
| TATACTTGTCGTAAGAACTTTGGTGGGTTGA [3d906] | 0.0323 |
| ATACTTGTCGTAAGACACTTTGGATGGTTGA [3d64] | 0.21 |
| TTCATTGTCTAAGACACTTTGGATGGGTTGA [3d321] | 0.203 |
| ATCATTGTCGTAAGAACTTTGGATGGGTTGA [3d95] | 0.802 |
| TATCACGTCGAAGACACTTTGGATGGGTTGA [3d1297] | 0.781 |

| Sequence | fraction ligated |
| --- | --- |
| TATCCTTGTCAAGACACTTTGGATGGGTTGA [3d1015] | 0.791 |
| TTCACTTTCGTAAGAACTTTGGATGGGTTGA [3d361] | 0.832 |
| ATCCTTTCGTAAGACACTTTGGATGGGTTGA [3d68] | 0.791 |
| TATCACTTGTCGAAGCCTTTGGATGGGTTGA [3d1926] | 0.757 |
| TTACTTTCGTAAGACACTTTGGATGGGTTGA [3d280] | 0.0128 |
| ATCACTTGTCTAAGACACTTTGATGGGTTGA [3d179] | 0.594 |
| TATCACTTGTCGTAAGACCTTGGTGGGTTGA [3d2185] | 0.0725 |
| TATCACTGCGTAAGACACTTGGATGGGTTGA [3d1336] | 0.793 |
| TACACTTGCGTAGACACTTTGGATGGGTTGA [3d604] | 0.0967 |
| TATCACTTGTCGTAAGACATTTGGGGGTTGA [3d2220] | 0.0157 |
| TATCACTTGTCGAAGACATTTGGATGGGTTA [3d1955] | 0.788 |
| ATCACTTGTCTAAGACACTTTGGAGGGTTGA [3d181] | 0.155 |
| TATCACTTGCGTAGACACTTTGGATGGGTTGA [2d166] | 0.835 |
| TTCCTTGTCGTAGACACTTTGGATGGGTTGA [3d304] | 0.77 |
| TATCACTTGTCGTAAGAACTTTGGATGGTTA [3d2179] | 0.11 |
| TATCACTGTCGAAGACACTTTGGATGGGTTGA [2d133] | 0.835 |
| TATACTTGTCGTAAGCACTTTGGATGGTTGA [3d900] | 0.0214 |
| TTCACTTGTCGTAAGACACTTTGGAGGTTGA [3d501] | 0.00904 |
| TATCCTTGTCTAAGACACTTTGGATGGTTGA [3d1026] | 0.047 |
| TATCACTTGTCGTAAGACCTTTGGTGGGTTGA [2d264] | 0.114 |
